{
  "source": "patent US20180125993A1",
  "about": "(BEIJING COTIMES BIOTECH COMPANY LIMITED, priority 2014, published 2018)",
  "key": {"Capan-1": {"test_system": "Capan-1", "experiment": "In vitro cytotoxic sensitivity of CTB006", "assay_type": "cell-based, human", "conditions": "Capan-1, Pancreatic cancer"}, "A427": {"test_system": "A427", "experiment": "In vitro cytotoxic sensitivity of CTB006", "assay_type": "cell-based, human", "conditions": "A427, Lung cancer"}, "HT1080": {"test_system": "HT1080", "experiment": "In vitro cytotoxic sensitivity of CTB006", "assay_type": "cell-based, human", "conditions": "HT1080, Fibrosarcoma"}, "MDA-MB-453": {"test_system": "MDA-MB-453", "experiment": "In vitro cytotoxic sensitivity of CTB006", "assay_type": "cell-based, human", "conditions": "MDA-MB-453, Breast cancer"}, "H460": {"test_system": "H460", "experiment": "In vitro cytotoxic sensitivity of CTB006", "assay_type": "cell-based, human", "conditions": "H460, Lung cancer"}, "colon cancer, CS263, 1#": {"test_system": "colon cancer, CS263, 1#", "experiment": "Patients primary tumor tissue subcutaneous model (Day 35 after treatment)", "assay_type": "in vivo, nude mice", "conditions": "HuCTB006 10 mg/kg i.v. QW × 4w", "source_text": "Fresh primary tumor tissues from patients were implanted in NOD/SCID mice's flank, which developed into a primary tumor, which was then transferred to the nude mice's flank to allow the tumor reaching an exponential growth phase, and the tumor was named 1# tumor, and so on. When the tumor volume and number reached passage requirements, they were implanted into the right flank of nude mice. When the tumors' average volumes reached 100-200 mm^3, the mice were grouped.\nThe bodyweight and major/minor axis of mice were measured twice a week, and Tumor Growth Inhibition (TGI) and tumor volume were calculated same as in 5.1.5. In addition, to evaluate the synergetic effect of drug combination in tumor growth, Jin Zhengjun Q value judgment method was used with the follow formula: Q=Ea+b/(Ea+Eb−Ea×Eb). Ea+b is the inhibition ratio of drug combination, Ea and Eb are the inhibition ratio of each of drug treatment when it is administered alone. […] The animals were monitored, and when the experiments were concluded, mice were sacrificed and tumors were extracted and weighted. All the animal experiments confer to the regulations of animal's welfare and the management of experimental animal usage.\nTumor volumes were represented with average±standard error. Data analysis was done using Spss16.0, One-Way ANOVA, LSD (homogeneity of variance) or Dunnett T3 (non-homogeneity of variance). […] P<0.05 represents significant difference."}, "BGC803": {"test_system": "BGC803", "experiment": "In vitro cytotoxic sensitivity of CTB006", "assay_type": "cell-based, human", "conditions": "BGC803, Stomach cancer"}, "MIA-PaCa-2": {"test_system": "MIA-PaCa-2", "experiment": "Cytotoxicity on human tumor cell lines (ATPLite Assay Kit)", "assay_type": "cell-based", "conditions": "MIA-PaCa-2, Pancreatic cancer", "experimental": "(§1) Eighteen human tumor cell lines were treated with 62.5, 125, 250, 500, or 1000 ng/mL HuCTB006 or different concentrations of chemotherapy drugs, which act as positive controls. […] The culture medium for SK-Hep-1, HepG2, HCT116, SW480, WiDr (1×NEAA), MIA-PaCa-2 (2.5% Horse serum) MDA-MB-231 (1 mM NaPyr, 1×MEM-NEAA, 1×MEM VITAMIN) was DMEM. The culture medium for COLO205, BXPC3 (2 mM glutamin, 10 mM HEPES), Panc2.03 (15FBS, 1 mM NaPyr, 1×MEM-NEAA, […], 10 mM HEPES), H2122, OVCAR3 (1 mM NaPyr, 10 ug/ml human insulin, 10 mM HEPES, 2.5 g/L glucose), Molt-4 (HEPES, 2.5 g/l glocose), Jurkat (HEPES, 2.5 g/l glocose) was RPMI-1640, the culture medium for SK-MES-1 was Eagle's MEM, the culture medium for 2-LMP and DY36T2 was IMEM, and the culture medium for SUM102 (5 ug/ml insulin) was F-12K. The cell viability was determined by ATPLite Assay Kit. If the IC50 value was lower than 62.5 ng/mL, the cells were treated with higher concentration of CTB006 in the second round of experiments to determine IC50 value."}, "Panc2.03": {"test_system": "Panc2.03", "experiment": "Cytotoxicity on human tumor cell lines (ATPLite Assay Kit)", "assay_type": "cell-based", "conditions": "Panc2.03, Pancreatic cancer", "experimental": "as §1"}, "COLO205": {"test_system": "COLO205", "experiment": "Cytotoxicity on human tumor cell lines (ATPLite Assay Kit)", "assay_type": "cell-based", "conditions": "COLO205, Colorectal cancer", "experimental": "as §1"}, "SK-Hep-1": {"test_system": "SK-Hep-1", "experiment": "Cytotoxicity on human tumor cell lines (ATPLite Assay Kit)", "assay_type": "cell-based", "conditions": "SK-Hep-1, Liver cancer", "experimental": "as §1"}, "HCT116": {"test_system": "HCT116", "experiment": "Cytotoxicity on human tumor cell lines (ATPLite Assay Kit)", "assay_type": "cell-based", "conditions": "HCT116, Colorectal cancer", "experimental": "as §1"}, "2-LMP": {"test_system": "2-LMP", "experiment": "Cytotoxicity on human tumor cell lines (ATPLite Assay Kit)", "assay_type": "cell-based", "conditions": "Breast cancer", "experimental": "as §1"}, "SW480": {"test_system": "SW480", "experiment": "Cytotoxicity on human tumor cell lines (ATPLite Assay Kit)", "assay_type": "cell-based", "conditions": "SW480, Colorectal cancer", "experimental": "as §1"}, "H2122": {"test_system": "H2122", "experiment": "Cytotoxicity on human tumor cell lines (ATPLite Assay Kit)", "assay_type": "cell-based", "conditions": "H2122, Lung cancer", "experimental": "as §1"}, "MDA-MB-231": {"test_system": "MDA-MB-231", "experiment": "Cytotoxicity on human tumor cell lines (ATPLite Assay Kit)", "assay_type": "cell-based", "conditions": "MDA-MB-231, Breast cancer", "experimental": "as §1"}, "SK-MES-1": {"test_system": "SK-MES-1", "experiment": "Cytotoxicity on human tumor cell lines (ATPLite Assay Kit)", "assay_type": "cell-based", "conditions": "SK-MES-1, Lung cancer", "experimental": "as §1"}, "SUM102": {"test_system": "SUM102", "experiment": "Cytotoxicity on human tumor cell lines (ATPLite Assay Kit)", "assay_type": "cell-based", "conditions": "SUM102, Breast cancer", "experimental": "as §1"}, "BXPC3": {"test_system": "BXPC3", "experiment": "Cytotoxicity on human tumor cell lines (ATPLite Assay Kit)", "assay_type": "cell-based", "conditions": "BXPC3, Pancreatic cancer", "experimental": "as §1"}, "SKOV3": {"test_system": "SKOV3", "experiment": "In vitro cytotoxic sensitivity of CTB006", "assay_type": "cell-based, human", "conditions": "SKOV3, Ovarian cancer"}},
  "data": [
    {"substance": "HuCTB006: Monospecific humanized chimeric monoclonal antibody directed to TRAIL-R2 receptor; heavy chain SEQ ID NO: 14, light chain SEQ ID NO: 12", "values": [
      {"measurement": "In vitro cytotoxic sensitivity of CTB006", "setting": "Capan-1", "result": "Non-responder"},
      {"measurement": "In vitro cytotoxic sensitivity of CTB006", "setting": "A427", "result": "Non-responder"},
      {"measurement": "In vitro cytotoxic sensitivity of CTB006", "setting": "HT1080", "result": "Non-responder"},
      {"measurement": "In vitro cytotoxic sensitivity of CTB006", "setting": "MDA-MB-453", "result": "Non-responder"},
      {"measurement": "In vitro cytotoxic sensitivity of CTB006", "setting": "H460", "result": "Partial-responder"},
      {"measurement": "T/C % (Calculated using tumor volumes)", "setting": "colon cancer, CS263, 1#", "result": 89.71, "unit": "%"},
      {"measurement": "TGI (Calculated using tumor volumes)", "setting": "colon cancer, CS263, 1#", "result": 9.42, "unit": "%"},
      {"measurement": "TGI (Calculated using tumor weight)", "setting": "colon cancer, CS263, 1#", "result": 16.11, "unit": "%"},
      {"measurement": "Time of tumor volume changed significantly", "setting": "colon cancer, CS263, 1#", "result": 13},
      {"measurement": "Tumor Volume Mean ± SEM", "setting": "colon cancer, CS263, 1#", "result": "0.96 ± 0.22", "unit": "cm^3"},
      {"measurement": "Tumor weight Mean ± SEM", "setting": "colon cancer, CS263, 1#", "result": "0.67 ± 0.16", "unit": "g"},
      {"measurement": "TGI (Calculated using tumor volumes)", "setting": "colon cancer, CS263, 1#; 10 mg/kg", "result": 9.42, "unit": "%"},
      {"measurement": "TGI (Calculated using tumor weight)", "setting": "colon cancer, CS263, 1#; 10 mg/kg", "result": 16.11, "unit": "%"},
      {"measurement": "In vitro cytotoxic sensitivity of CTB006", "setting": "BGC803", "result": "Non-responder"},
      {"measurement": "In vitro cytotoxic sensitivity of CTB006", "setting": "MIA-PaCa-2", "result": "Responder"},
      {"measurement": "In vitro cytotoxic sensitivity of CTB006", "setting": "Panc2.03", "result": "Partial-responder"},
      {"measurement": "In vitro cytotoxic sensitivity of CTB006", "setting": "COLO205", "result": "Responder"},
      {"measurement": "In vitro cytotoxic sensitivity of CTB006", "setting": "SK-Hep-1", "result": "Partial-responder"},
      {"measurement": "In vitro cytotoxic sensitivity of CTB006", "setting": "HCT116", "result": "Responder"},
      {"measurement": "In vitro cytotoxic sensitivity of CTB006", "setting": "2-LMP", "result": "Responder"},
      {"measurement": "In vitro cytotoxic sensitivity of CTB006", "setting": "SW480", "result": "Partial-responder"},
      {"measurement": "In vitro cytotoxic sensitivity of CTB006", "setting": "H2122", "result": "Responder"},
      {"measurement": "In vitro cytotoxic sensitivity of CTB006", "setting": "MDA-MB-231", "result": "Responder"},
      {"measurement": "In vitro cytotoxic sensitivity of CTB006", "setting": "SK-MES-1", "result": "Responder"},
      {"measurement": "In vitro cytotoxic sensitivity of CTB006", "setting": "SUM102", "result": "Partial-responder"},
      {"measurement": "In vitro cytotoxic sensitivity of CTB006", "setting": "BXPC3", "result": "Responder"},
      {"measurement": "In vitro cytotoxic sensitivity of CTB006", "setting": "SKOV3", "result": "Non-responder"}
    ]}
  ]
}
